Data on 13 proteins can be found in patent US20030200558A1 (MONSANTO, published 2003).

B1: β-conglycinin β subunit mutant 39335-31 (other)
chain: MDYKDDDDKLKVREDENNPFYLRSSNSFQTLFENQNGRIRLIQRFNKRSPQLENLRDYRIVQFQSKPNTIILPHHADADFIIIILSGRAIITIVNNDDRDSYNIHPGDAIRIPAGTTYYIINPHDHQNLKIIKIAIPVNKPGRYDDFFLSSTQAQQSYLQGFSHNILETSFHSEFEEINRVLLGEEEEQRQQEGVIVELSKEQIRQLSRRAKSSSRKTISSEDEPFNLRSRNPIYSNNFGKIFEITPEKTPQLRDLDIFISSVDINEGALILPHFNSKAIVILVINEGDANIEIVGIKEQQQKQKQEEEPLEVQRYRAELSEDDIIVIPAAYPFVINATSNLNFLAFGINAENNQRNFLAGEKDNVVRQIERQVQELAFPGSAQDVERLLKKQRESYFVDAQPQQKEEGSKGRKGPFPSILGALY
B2: β-conglycinin β subunit mutant 39335-46 (other)
chain: MDYKDDDDKLKVREDENNPFYLRSSNSFQTLFENQNGRIRLIQRFNKRSPQLENLRDYRIVQIQSKPNTIILPHHADADFIIIILSGRAIITIVNNDDRDSYNIHPGDAQRIPAGTTYYIINPHDHQNLKIIKIAIPVNKPGRYDDFFLSSTQAQQSYLQGFSHNILETSFHSEFEEINRVLLGEEEEQRQQEGVIVELSKEQIRQLSRRAKSSSRKTISSEDEPFNLRSRNPIYSNNFGKFFEITPEKTPQLRDLDIFISSVDINEGALLLPHFNSKAIVILVINEGDANIELVGIKEQQQKQKQEEEPLEVQRYRAELSEDDIIVIPAAYPFVVNATSNLNIIAIGINAENNQRNFLAGEKDNVVRQIERQVQELAFPGSAQDVERLLKKQRESYFVDAQPQQKEEGSKGRKGPFPSILGALY
B3: β-conglycinin β subunit mutant 39335-57 (other)
chain: MDYKDDDDKLKVREDENNPFYLRSSNSFQTLFENQNGRIRLIQRFNKRSPQLENLRDYRIVQIQSKPNTIILPHHADADFIIIILSGRAIITIVNNDDRDSYNIHPGDAIRIPAGTTYYIINPHDHQNLKIIKIAIPVNKPGRYDDFFLSSTQAQQSYLQGFSHNILETSFHSEFEEINRVLLGEEEEQRQQEGVIVELSKEQIRQLSRRAKSSSRKTISSEDEPFNLRSRNPIYSNNFGKFFEITPEKTPQLRDLDIFISSVDINEGALLLPHFNSKAIVILVINEGDANIEIVGIKEQQQKQKQEEEPLEVQRYRAELSEDDIFVIPAAYPFVINATSNLNFIAFGINAENNQRNFLAGEKDNVVRQIERQVQELAFPGSAQDVERLLKKQRESYFVDAQPQQKEEGSKGRKGPFPSILGALY
B4: β-conglycinin β subunit mutant 39335-51 (other)
chain: MDYKDDDDKLKVREDENNPFYLRSSNSFQTLFENQNGRIRLIQRFNKRSPQLENLRDYRIVQIQSKPNTIILPHHADADFIIIILSGRAIITIVNNDDRDSYNIHPGDAIRIPAGTTYYIINPHDHQNLKIIKIAIPVNKPGRYDDFFLSSTQAQQSYLQGFSHNILETSFHSEFEEINRVLLGEEEEQRQQEGVIVELSKEQIRQLSRRAKSSSRKTISSEDEPFNLRSRNPIYSNNFGKFFEITPEKTPQLRDLDIFISSVDINEGALLLPHFNSKAIVILVINEGDANIEIVGIKEQQQKQKQEEEPLEVQRYRAELSEDDIIVIPAAYPFVVNATSNLNIIAIGINAENNQRNFLAGEKDNVVRQIERQVQELAFPGSAQDVERLLKKQRESYFVDAQPQQKEEGSKGRKGPFPSILGALY
B5: β-conglycinin β subunit mutant 39335-43 (other)
chain: MDYKDDDDKLKVREDENNPFYLRSSNSFQTLFENQNGRIRLIQRFNKRSPQLENLRDYRIVQFQSKPNTIILPHHADADFIIIILSGRAILTLVNNDDRDSYNIHPGDAIRIPAGTTYYIINPHDHQNLKIIKIAIPVNKPGRYDDFFLSSTQAQQSYLQGFSHNILETSFHSEFEEINRVLLGEEEEQRQQEGVIVELSKEQIRQLSRRAKSSSRKTISSEDEPFNLRSRNPIYSNNFGKIFEITPEKTPQLRDLDIFLSSVDINEGALLLPHFNSKAIVILVINEGDANIELVGIKEQQQKQKQEEEPLEVQRYRAELSEDDIIVIPAAYPFVVNATSNLNIIAIGINAENNQRNFLAGEKDNVVRQIERQVQELAFPGSAQDVERLLKKQRESYFVDAQPQQKEEGSKGRKGPFPSILGALY
B6: β-conglycinin β subunit mutant 39335-36 (other)
chain: MDYKDDDDKLKVREDENNPFYLRSSNSFQTLFENQNGRIRLIQRFNKRSPQLENLRDYRIVQFQSKPNTIILPHHADADFIIIILSGRAILTLVNNDDRDSYNIHPGDAIRIPAGTTYYIINPHDHQNLKIIKIAIPVNKPGRYDDFFLSSTQAQQSYLQGFSHNILETSFHSEFEEINRVLLGEEEEQRQQEGVIVELSKEQIRQLSRRAKSSSRKTISSEDEPFNLRSRNPIYSNNFGKFFEITPEKTPQLRDLDIFISSVDINEGALILPHFNSKAIVILVINEGDANIEIVGIKEQQQKQKQEEEPLEVQRYRAELSEDDVFVIPAAYPFVINATSNLNFLAFGINAENNQRNFLAGEKDNVVRQIERQVQELAFPGSAQDVERLLKKQRESYFVDAQPQQKEEGSKGRKGPFPSILGALY
B7: β-conglycinin β subunit mutant 39335-38 (other)
chain: MDYKDDDDKLKVREDENNPFYLRSSNSFQTLFENQNGRIRLIQRFNKRSPQLENLRDYRIVQFQSKPNTIILPHHADADFIIIILSGRAILTLVNNDDRDSYNIHPGDAQRIPAGTTYYIINPHDHQNLKIIKIAIPVNKPGRYDDFFLSSTQAQQSYLQGFSHNILETSFHSEFEEINRVLLGEEEEQRQQEGVIVELSKEQIRQLSRRAKSSSRKTISSEDEPFNLRSRNPIYSNNFGKFFEITPEKTPQLRDLDIFLSSVDINEGALILPHFNSKAIVILVINEGDANIELVGIKEQQQKQKQEEEPLEVQRYRAELSEDDVFVIPAAYPFVVNATSNLNFLAFGINAENNQRNFLAGEKDNVVRQIERQVQELAFPGSAQDVERLLKKQRESYFVDAQPQQKEEGSKGRKGPFPSILGALY
B8: β-conglycinin β subunit mutant 39335-42 (other)
chain: MDYKDDDDKLKVREDENNPFYLRSSNSFQTLFENQNGRIRLIQRFNKRSPQLENLRDYRIVQIQSKPNTIILPHHADADFIIIILSGRAILTLVNNDDRDSYNIHPGDAIRIPAGTTYYIINPHDHQNLKIIKIAIPVNKPGRYDDFFLSSTQAQQSYLQGFSHNILETSFHSEFEEINRVLLGEEEEQRQQEGVIVELSKEQIRQLSRRAKSSSRKTISSEDEPFNLRSRNPIYSNNFGKIFEITPEKTPQLRDLDIFLSSVDINEGALLLPHFNSKAIVILVINEGDANIELVGIKEQQQKQKQEEEPLEVQRYRAELSEDDIIVIPAAYPFVVNATSNLNFLAFGINAENNQRNFLAGEKDNVVRQIERQVQELAFPGSAQDVERLLKKQRESYFVDAQPQQKEEGSKGRKGPFPSILGALY
B9: β-conglycinin β subunit mutant 39335-49 (other)
chain: MDYKDDDDKLKVREDENNPFYLRSSNSFQTLFENQNGRIRLIQRFNKRSPQLENLRDYRIVQFQSKPNTIILPHHADADFIIIILSGRAILTLVNNDDRDSYNIHPGDAQRIPAGTTYYIINPHDHQNLKIIKIAIPVNKPGRYDDFFLSSTQAQQSYLQGFSHNILETSFHSEFEEINRVLLGEEEEQRQQEGVIVELSKEQIRQLSRRAKSSSRKTISSEDEPFNLRSRNPIYSNNFGKFFEITPEKTPQLRDLDIFISSVDINEGALLLPHFNSKAIVILVINEGDANIELVGIKEQQQKQKQEEEPLEVQRYRAELSEDDIIVIPAAYPFVVNATSNLNIIAIGINAENNQRNFLAGEKDNVVRQIERQVQELAFPGSAQDVERLLKKQRESYFVDAQPQQKEEGSKGRKGPFPSILGALY
B10: β-conglycinin β subunit mutant 39335-66 (other)
chain: MDYKDDDDKLKVREDENNPFYLRSSNSFQTLFENQNGRIRLIQRFNKRSPQLENLRDYRIVQFQSKPNTIILPHHADADFIIIILSGRAILTLVNNDDRDSYNIHPGDAQRIPAGTTYYIINPHDHQNLKIIKIAIPVNKPGRYDDFFLSSTQAQQSYLQGFSHNILETSFHSEFEEINRVLLGEEEEQRQQEGVIVELSKEQIRQLSRRAKSSSRKTISSEDEPFNLRSRNPIYSNNFGKIFEITPEKTPQLRDLDIFLSSVDINEGALLLPHFNSKAIVILVINEGDANIELVGIKEQQQKQKQEEEPLEVQRYRAELSEDDVFVIPAAYPFVVNATSNLNFLAFGINAENNQRNFLAGEKDNVVRQIERQVQELAFPGSAQDVERLLKKQRESYIVDAQPQQKEEGSKGRKGPFPSILGALY
B11: β-conglycinin β subunit mutant 39335-64 (other)
chain: MDYKDDDDKLKVREDENNPFYLRSSNSFQTLFENQNGRIRLIQRFNKRSPQLENLRDYRIVQIQSKPNTIILPHHADADFIIIILSGRAIITIVNNDDRDSYNIHPGDAIRIPAGTTYYIINPHDHQNLKIIKIAIPVNKPGRYDDFFLSSTQAQQSYLQGFSHNILETSFHSEFEEINRVLLGEEEEQRQQEGVIVELSKEQIRQLSRRAKSSSRKTISSEDEPFNLRSRNPIYSNNFGKFFEITPEKTPQLRDLDIFISSVDINEGALIIPHFNSKAIVILVINEGDANIEIVGIKEQQQKQKQEEEPLEVQRYRAELSEDDIIVIPAAYPFVINATSNLNFLAFGINAENNQRNFLAGEKDNVVRQIERQVQELAFPGSAQDVERLLKKQRESYFVDAQPQQKEEGSKGRKGPFPSILGALY
B12: β-conglycinin β subunit mutant 39335-56 (other)
chain: MDYKDDDDKLKVREDENNPFYLRSSNSFQTLFENQNGRIRLIQRFNKRSPQLENLRDYRIVQIQSKPNTIILPHHADADFIIIILSGRAIITIVNNDDRDSYNIHPGDAIRIPAGTTYYIINPHDHQNLKIIKIAIPVNKPGRYDDFFLSSTQAQQSYLQGFSHNILETSFHSEFEEINRVLLGEEEEQRQQEGVIVELSKEQIRQLSRRAKSSSRKTISSEDEPFNLRSRNPIYSNNFGKIFEITPEKTPQLRDLDIFISSVDINEGALLLPHFNSKAIVILVINEGDANIEIVGIKEQQQKQKQEEEPLEVQRYRAELSEDDIIVIPAAYPFVINATSNLNFIAFGINAENNQRNFLAGEKDNVVRQIERQVQELAFPGSAQDVERLLKKQRESYIVDAQPQQKEEGSKGRKGPFPSILGALY
B13: β-conglycinin β subunit mutant 39335-70 (other)
chain: MDYKDDDDKLKVREDENNPFYLRSSNSFQTLFENQNGRIRLIQRFNKRSPQIENLRDYRIVQFQSKPNTIILPHHADADFIIIILSGRAIITIVNNDDRDSYNIHPGDAQRIPAGTTYYIINPHDHQNLKIIKIAIPVNKPGRYDDFFLSSTQAQQSYLQGFSHNILETSFHSEFEEINRVLLGEEEEQRQQEGVIVELSKEQIRQLSRRAKSSSRKTISSEDEPFNLRSRNPIYSNNFGKFFEITPEKTPQIRDLDIFLSSVDINEGALLLPHFNSKAIVILVINEGDANIELVGIKEQQQKQKQEEEPLEVQRYRAELSEDDIIVIPAAYPFVVNATSNLNIIAIGINAENNQRNFLAGEKDNVVRQIERQVQELAFPGSAQDVERLLKKQRESYFVDAQPQQKEEGSKGRKGPFPSILGALY

The data set concerns the molecule itself. Nature of the data set: sucrose gradient sedimentation, anti-FLAG western (self-assembly).
B1: the binding result is recorded as “no binding”. In the case of B2 it was “no binding”. In the case of B3 it was “no binding”. The entry for B4 is “no binding”; for B5 it is “no binding”. As for B6, the binding result is reported as “no binding”.

Turning to B7, the binding result was “no binding”. As for B8, the binding result is “no binding”. The entry for B9 is “no binding”; for B10 it is “no binding”; for B11 it is “no binding”. The entry for B12 is “no binding”; for B13 it is “no binding”.
